Columns and labels:
CaENO1 = target: T1, CaENO1 (Candida albicans, UniProt P30575); assay: Western blot on purified ENO1 protein of C. albicans; format: binding
T1 construct: using full-length CaENO1 (1323 bp) as template; His (N); made in house; host or cells: E. coli BL21
Description: (A) The total cell lysates of 5 Candida spp. were visualized on SDS-PAGE (left). After transferred onto the NC membranes, they were probed with purified anti-CaENO1 from 7th immunized chicken (1:3,000) (middle), or with CaS1 scFv (right) as described in material and methods. Lanes 1-6 in (A) contained the total cell lysates of C. albicans, C. krusei, C. tropicalis, C. parapsilosis and C. glabrate and purified recombinant CaENO1, respectively. […] (C) Total cell lysate from FLU^R and FLU^s and C. tropicalis (lanes 1-5 represent CT6-29, CT11-52, CT6-50, CT12-54, BCRC20520, respectively) by SDS-PAGE (left) and probed with CaS1 scFv by Western blot (right). (D) The purified ENO1 proteins of C. albicans, S. pneumonia, S. aureus, mouse and human were visualized on SDS-PAGE (left). After transferred onto the NC membranes, they were probed with purified CaS1 scFv (right) as described. Lane M contained protein markers.
Briefly, C. albicans alpha-enolase genes were constructed in pQE30 plasmids to form pQE30-CaENO1 vector, and then the resulting vectors were transformed with E. coli BL21 cells. The bacterial culture was grown in 10 ml LB medium containing ampicillin ([…]) at 37° C. overnight, diluted 10-fold in the same LB medium and further grown until the OD600 reached between 0.6 and 1.0. […]

[1] = tested on: binding of C. albicans cells to human oral keratinocyte OECM-1 cells; assay: Adhesion assay of C. albicans to OECM-1 cells; format: cell-based; settings: 50 μg and 100 μg, vs PBS control
Method: C. albicans were mixed with 1×PBS, 50 ug or 100 ug CaS1 scFv at 37° C. for 1 hr and added into OECM-1 cells in culture wells as described in the text. After being washed, cells attached to C. albicans were detected by adding HRP-conjugated anti-C. albicans antibodies.
Cell adhesion assay was performed using human oral epidermal cells (OECM-1) (XXX). C. albicans (1×10^6 cfu) were pre-incubated with CaS1 scFv antibodies ([…]) at 37° C. for 1 hr. After incubation, the mixtures were two-fold diluted and added onto 10^4 OECM-1 cells cultured in 96-well plates. The plates were further incubated at 4° C. for 2 hrs. After being washed three times with 1×PBS, the plates were fixed with 10% formaldehyde. After being washed as above, the wells were blocked with skim milk for 1 hr. Thereafter, rabbit anti-C. albicans antibodies (1:3,000, Bethyl, USA) were added and incubated for another 1 hr, followed by adding the HRP-conjugated anti-rabbit antibodies (1:3,000, Bethyl, USA). Washings as above were always carried out between steps. TMB was used for color development, which was stopped with 1 N HCl. The intensity of the color was measured at 450 nm on an ELISA plate reader.
C. albicans cells (1×10^6) were treated with 50 μg and 100 μg of scFv CaS1, respectively, and the resulting mixtures were added to human oral keratinocyte OECM-1 cells to test the binding ability of C. albicans cells to OECM-1 cells.

[2] = target: T2, binding of surface ENO1 of C. albicans to plasminogen (Candida albicans, UniProt P30575); assay: Fibrin matrix-gel degradation analysis with C. albicans cells; format: cell-based; settings: for Binding of CaENO1 to plasminogen: fibrin matrix-gel degradation analysis, C. albicans cells
T2 construct: endogenous in cells; host or cells: C. albicans cells
Method: The ability of CaS1 scFv to block the binding of CaENO1 with plasminogen was evaluated by fibrin matrix-gel degradation analysis. Various samples containing C. albicans only (1), C. albicans+1 ug of plasminogen (2) or C. albicans+10 ug of plasminogen (3) were spotted on the plate. Similar experiments were carried out except C. albicans were mixed first with 10 ug (4) or 100 ug (5) of CaS1 scFv, followed by the addition of 10 ug of plasminogen. C. albicans+CaS1 scFv without plasminogen (6) were spotted as a negative control.
The matrix gel was prepared for fibrinolysis activity detection^33. C. albicans (10^6 cells) were washed and incubated with or without CaS1scFv ([…]) at 37° C. for 1 hr. After incubation, cells were washed and incubated with plasminogen (10 μg) for 30 min. The mixtures were washed with PBS to remove free plasminogen. The resulting cell pellets were placed in a matrix gel that contained 1.25% low-melting-temperature agarose, thrombin (0.05 U/ml, Sigma) and fibrinogen (2 mg/ml, Sigma). The gel was incubated in a humidified chamber at 37° C. for 10-14 hrs until the appearance of clear spots indicated the presence of fibrinolysis activity.
It is well known that surface ENO1 act as a plasminogen receptor 32, binding to plasminogen will activate it to plasmin and leading to the degradation of the fibrinogen (extracellular matrix) containing in the gel. We performed matrix-gel studies to test the possible biological significance of CaENO1-plasminogen association and the effect of CaS1 scFv on this binding was observed.
The inhibition of the degradation of the fibrinogen in the gel is obvious.

T2 sequence (P30575 whole entry): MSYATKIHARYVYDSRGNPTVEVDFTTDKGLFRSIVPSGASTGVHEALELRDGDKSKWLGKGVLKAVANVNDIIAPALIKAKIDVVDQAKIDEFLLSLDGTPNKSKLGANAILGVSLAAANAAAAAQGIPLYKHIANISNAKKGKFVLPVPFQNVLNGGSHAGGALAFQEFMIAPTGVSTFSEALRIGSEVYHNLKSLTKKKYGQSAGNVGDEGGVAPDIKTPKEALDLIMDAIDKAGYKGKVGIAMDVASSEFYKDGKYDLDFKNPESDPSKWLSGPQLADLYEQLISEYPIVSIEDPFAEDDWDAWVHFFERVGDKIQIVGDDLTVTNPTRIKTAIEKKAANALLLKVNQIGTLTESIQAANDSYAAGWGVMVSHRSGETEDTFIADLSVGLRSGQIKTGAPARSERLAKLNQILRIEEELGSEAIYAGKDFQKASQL
T1 sequence (P30575 whole entry): as above

B1: CaS1 scFv: anti-CaENO1 scFv monoclonal antibody from chicken phage library; light chain SEQ ID NO:11, heavy chain SEQ ID NO:12 (antibody, V domains shown)
VH: TVTLDESGGGLQTPRGALSLVCKASGFTFIDYGMQWVRQAPGKGLEWVAGIGSSGSSTNYGAAVKGRATISRDDGQSTVRLQLNNLRAEDTGTYYCAKSAGGYCVNGAGCNGGSIDAWGHGTEVIVSS
VL: ALTQPSSVSANLGGTVKITCSGGSGSYGWYQQKSPGSAPVTVIYSNNQRPSNIPSRFSGSPSGSTGTLTITGVQADDEAVYFCGSRDSSYVGVFGAGTTLTVL
modifications: scFv linker; amino acid sequence comprised in a heavy chain of an anti-CaENO1 scFv monoclonal antibody (CaS1); amino acid sequence comprised in a light chain of an anti-CaENO1 scFv monoclonal antibody (CaS1)
Binding to purified CaENO1 (Western blot) (CaENO1): bind and recognizes
Binding of C. albicans cells to OECM-1 cells ([1]; listed as CaS1): inhibited its adherence
Binding of C. albicans cells to OECM-1 cells ([1]; listed as CaS1 ScFv): inhibited
Binding of C. albicans cells to OECM-1 cells ([1]; listed as scFv CaS1): significantly reduced
Fibrinolytic activity of C. albicans with plasminogen ([2]; C. albicans pre-incubated with 10 ug or 100 ug, then 10 ug plasminogen): significantly inhibited
Fibrinolysis activity in the absence of plasminogen ([2]; C. albicans+CaS1 scFv without plasminogen): no fibrinolysis activity
Binding of CaENO1 to plasminogen [2]: significantly reduced
Binding of CaENO1 to plasminogen ([2]; listed as CaS1): significantly inhibited
